# ± gives the uncertainty stated by the source.
# Assay: abundance fitness (aPCA) (normalised: wild type 0, dead -1); higher = more abundant; growth selection in yeast, the domain comes from the species named
# Details: Homo sapiens
row,Substance,abundance fitness
1,"E3 ubiquitin-protein ligase NEDD4-like L226P, Q96PU5",0.104 ± 0.059
2,"E3 ubiquitin-protein ligase NEDD4-like L226R, Q96PU5",-0.007 ± 0.065
3,"E3 ubiquitin-protein ligase NEDD4-like L226S, Q96PU5",0.034 ± 0.07
4,"E3 ubiquitin-protein ligase NEDD4-like L226V, Q96PU5",-0.11 ± 0.063
5,"E3 ubiquitin-protein ligase NEDD4-like L226W, Q96PU5",-0.309 ± 0.069
6,"E3 ubiquitin-protein ligase NEDD4-like L226Y, Q96PU5",-0.043 ± 0.091
7,"E3 ubiquitin-protein ligase NEDD4-like M227A, Q96PU5",-0.077 ± 0.064
8,"E3 ubiquitin-protein ligase NEDD4-like M227C, Q96PU5",-0.05 ± 0.059
9,"E3 ubiquitin-protein ligase NEDD4-like M227D, Q96PU5",0.065 ± 0.12
10,"E3 ubiquitin-protein ligase NEDD4-like M227G, Q96PU5",-0.039 ± 0.064
11,"E3 ubiquitin-protein ligase NEDD4-like M227H, Q96PU5",0.092 ± 0.077
12,"E3 ubiquitin-protein ligase NEDD4-like M227I, Q96PU5",-0.135 ± 0.073
13,"E3 ubiquitin-protein ligase NEDD4-like M227K, Q96PU5",-0.015 ± 0.093
14,"E3 ubiquitin-protein ligase NEDD4-like M227L, Q96PU5",-0.027 ± 0.067
15,"E3 ubiquitin-protein ligase NEDD4-like M227N, Q96PU5",-0.024 ± 0.099
16,"E3 ubiquitin-protein ligase NEDD4-like M227P, Q96PU5",0.145 ± 0.09
17,"E3 ubiquitin-protein ligase NEDD4-like M227Q, Q96PU5",-0.068 ± 0.1
18,"E3 ubiquitin-protein ligase NEDD4-like M227R, Q96PU5",0.001 ± 0.054
19,"E3 ubiquitin-protein ligase NEDD4-like M227S, Q96PU5",0.055 ± 0.063
20,"E3 ubiquitin-protein ligase NEDD4-like M227T, Q96PU5",-0.022 ± 0.089
21,"E3 ubiquitin-protein ligase NEDD4-like M227V, Q96PU5",-0.285 ± 0.068
22,"E3 ubiquitin-protein ligase NEDD4-like M227W, Q96PU5",-0.313 ± 0.07
23,"E3 ubiquitin-protein ligase NEDD4-like M227Y, Q96PU5",-0.184 ± 0.082

row,Substance,abundance fitness
1,"E3 ubiquitin-protein ligase NEDD4-like N205A, Q96PU5",-0.057 ± 0.06
2,"E3 ubiquitin-protein ligase NEDD4-like N205C, Q96PU5",-0.142 ± 0.059
3,"E3 ubiquitin-protein ligase NEDD4-like N205D, Q96PU5",-0.085 ± 0.07
4,"E3 ubiquitin-protein ligase NEDD4-like N205E, Q96PU5",-0.105 ± 0.05
5,"E3 ubiquitin-protein ligase NEDD4-like N205F, Q96PU5",-0.544 ± 0.11
6,"E3 ubiquitin-protein ligase NEDD4-like N205G, Q96PU5",-0.321 ± 0.054
7,"E3 ubiquitin-protein ligase NEDD4-like N205H, Q96PU5",-0.062 ± 0.11
8,"E3 ubiquitin-protein ligase NEDD4-like N205I, Q96PU5",-0.111 ± 0.098
9,"E3 ubiquitin-protein ligase NEDD4-like N205K, Q96PU5",0.033 ± 0.097
10,"E3 ubiquitin-protein ligase NEDD4-like N205L, Q96PU5",-0.196 ± 0.07
11,"E3 ubiquitin-protein ligase NEDD4-like N205M, Q96PU5",-0.109 ± 0.055
12,"E3 ubiquitin-protein ligase NEDD4-like N205P, Q96PU5",-0.012 ± 0.093
13,"E3 ubiquitin-protein ligase NEDD4-like N205Q, Q96PU5",-0.087 ± 0.069
14,"E3 ubiquitin-protein ligase NEDD4-like N205R, Q96PU5",-0.013 ± 0.054
15,"E3 ubiquitin-protein ligase NEDD4-like N205T, Q96PU5",0.029 ± 0.092
16,"E3 ubiquitin-protein ligase NEDD4-like N205V, Q96PU5",-0.232 ± 0.068
17,"E3 ubiquitin-protein ligase NEDD4-like N205Y, Q96PU5",0.049 ± 0.094
18,"E3 ubiquitin-protein ligase NEDD4-like N213A, Q96PU5",-0.382 ± 0.071
19,"E3 ubiquitin-protein ligase NEDD4-like N213C, Q96PU5",-0.042 ± 0.14
20,"E3 ubiquitin-protein ligase NEDD4-like N213D, Q96PU5",-0.206 ± 0.075
21,"E3 ubiquitin-protein ligase NEDD4-like N213E, Q96PU5",-0.404 ± 0.11
22,"E3 ubiquitin-protein ligase NEDD4-like N213F, Q96PU5",-0.507 ± 0.11
23,"E3 ubiquitin-protein ligase NEDD4-like N213G, Q96PU5",-0.326 ± 0.084

row,Substance,abundance fitness
1,"E3 ubiquitin-protein ligase NEDD4-like N213K, Q96PU5",-0.752 ± 0.18
2,"E3 ubiquitin-protein ligase NEDD4-like N213L, Q96PU5",-0.709 ± 0.1
3,"E3 ubiquitin-protein ligase NEDD4-like N213M, Q96PU5",-0.441 ± 0.11
4,"E3 ubiquitin-protein ligase NEDD4-like N213P, Q96PU5",-0.383 ± 0.24
5,"E3 ubiquitin-protein ligase NEDD4-like N213Q, Q96PU5",-0.295 ± 0.089
6,"E3 ubiquitin-protein ligase NEDD4-like N213R, Q96PU5",-0.56 ± 0.069
7,"E3 ubiquitin-protein ligase NEDD4-like N213S, Q96PU5",0.213 ± 0.12
8,"E3 ubiquitin-protein ligase NEDD4-like N213T, Q96PU5",-0.428 ± 0.1
9,"E3 ubiquitin-protein ligase NEDD4-like N213V, Q96PU5",-0.88 ± 0.13
10,"E3 ubiquitin-protein ligase NEDD4-like N213W, Q96PU5",-0.753 ± 0.1
11,"E3 ubiquitin-protein ligase NEDD4-like N213Y, Q96PU5",-0.349 ± 0.39
12,"E3 ubiquitin-protein ligase NEDD4-like N215A, Q96PU5",-0.029 ± 0.072
13,"E3 ubiquitin-protein ligase NEDD4-like N215C, Q96PU5",-0.178 ± 0.084
14,"E3 ubiquitin-protein ligase NEDD4-like N215D, Q96PU5",0.015 ± 0.086
15,"E3 ubiquitin-protein ligase NEDD4-like N215E, Q96PU5",-0.086 ± 0.077
16,"E3 ubiquitin-protein ligase NEDD4-like N215F, Q96PU5",-0.169 ± 0.1
17,"E3 ubiquitin-protein ligase NEDD4-like N215G, Q96PU5",-0.036 ± 0.05
18,"E3 ubiquitin-protein ligase NEDD4-like N215H, Q96PU5",-0.031 ± 0.1
19,"E3 ubiquitin-protein ligase NEDD4-like N215I, Q96PU5",-0.077 ± 0.084
20,"E3 ubiquitin-protein ligase NEDD4-like N215K, Q96PU5",0.165 ± 0.098
21,"E3 ubiquitin-protein ligase NEDD4-like N215L, Q96PU5",-0.205 ± 0.07
22,"E3 ubiquitin-protein ligase NEDD4-like N215M, Q96PU5",-0.077 ± 0.062
